Experiments:
[1] = test system: p.G542X-CFTR mRNA; experiment: qPCR of steady state CFTR mRNA (NMD inhibition) in p.G542X 16HBE14o- cells; format: cell-based, human; conditions: 48 hours after transfection, ACE-tRNA^Gly delivered as plasmid
Description: (§1) (A) Representative image of 16HBE14o- cells transfected on Transwells. (B) Representative Cl^− short circuit current traced from WT (Black), p.R1162X 16HBE14oe- cells transfected with empty vector (red) and 500 bp ACE-tRNA^Arg CEDTs (blue) in Ussing chamber recordings. […] All constructs were transfected at equal amounts. *p<0.05; **p<0.0001.
(§2) The majority of prior studies had used suppressor tRNAs to rescue PTCs encoded from cDNAs. […] In this example, 16HBE14o- cells, human bronchiole epithelial cell line, were used to determine ACE-tRNAs PTC suppression activity within the endogenous genomic landscape. Also used were mutant 16HBE14o- cells, which were CRISPR/Cas9 modified to harbor CF causing PTCs at positions p.G542X-, p.R1162X- and p.W1282X-CFTR. The cells were used to study CFTR and airway epithelia biology (Cozens, A. L. et al. American journal of respiratory cell and molecular biology 10, 38-47 (1994)).
(§3) The inventors next looked to see if ACE-tRNAs inhibited NMD following transfection of ACE-tRNA transcripts.

[2] = test system: UGA codon; experiment: PTC suppression by ACE-tRNA: codon specificity and comparison with aminoglycosides; format: cell-based
Description: Using a novel high throughput cloning (HTC) and screening (HTS) method, a library of more than 500 suppressor tRNAs (ACE-tRNAs) was recently developed. In the library, the anticodon of human tRNA genes were engineered to recognize disease causing PTC codons (UAG, UAA and UGA). The ACE-tRNAs platform targeted all possible PTCs that are resultant of one nucleotide change from translated codons (tRNA^ArgUGA, tRNA^GlnUAA, tRNA^GlnUAG, tRNA^TrpUGA, tRNA^TrpUAG, tRNA^GluUAA, tRNA^GluUAG, tRNA^CysUGA, tRNA^TyrUAG, tRNA^TyrUAA, tRNA^LeuUGA, tRNA^LeuUAG, tRNA^LeuUAA, tRNA^LysUAG, tRNA^LysUGA, tRNA^SerUGA, tRNA^SerUAG, and tRNA^SerUAA).

[3] = test system: PTC; experiment: High resolution mass-spectrometry of the amino acid encoded at the PTC
Method: Assays were carried out to ascertain whether ACE-tRNAs identified in the screen were functionalized at the expense of recognition by the aminoacyl-tRNA synthetase. […] It was confirmed that using high resolution mass-spectrometry, the cognate amino acid for both ACE-tRNA^GlyUGA and -tRNA^TrpUGA were encoded with high fidelity, resulting in seamless PTC suppression.

[4] = test system: W1282X-CFTR mRNA; experiment: CFTR mRNA expression in W1282X-CFTR 16HBE14ge- cells; format: cell-based, human
Method: In this example, studies were carried out to examine and compare rescues of endogenous CFTR PTCs with a conventional PTC readthrough agent (i.e., G418) and ACE-tRNAs delivered in plasmids. To that end, an engineered human bronchiole epithelial cell line, 16HBE14ge-, was used (Valley et al., Journal of Cystic Fibrosis, Volume 18, Issue 4, July 2019, Pages 476-483). G418 (Geneticin) is a standard PTC readthrough agent that works by interacting with the decoding center of the ribosome and promoting the suppression of PTCs with near-cognate tRNAs, thus incorporating wrong amino acids in many instances. Due to its non-specific nature, rescue by G418 results in generation of a missense mutation from a nonsense mutation. In contrast, ACE-tRNAs as disclosed herein put in the desired amino acid.
To carry out the assays, wildtype 16HBE14ge- cells or 16HBE14ge- cells having the W1282X-CFTR or R1162X-CFTR mutation were (i) treated with 100 uM G418 or vehicle, or (ii) transfected with empty plasmids or various plasmids encoding one or four copies of three ACE-tRNAs (SEQ ID NOs: 8, 4, and 1): 1×ACE-tRNA^Arg 4×ACE-tRNA^Arg, 1×ACE-tRNA^Leu 4×ACE-tRNA^Leu, 1×ACE-tRNA^Trp, and 4×ACE-tRNA^Trp in the manner described in Example 4. After 48 hours, the corresponding CFTR mRNA expression levels were then determined.
In this example, assays were carried out to examine and compare rescues of endogenous CFTR PTCs with ACE-tRNAs delivered in different formats e.g., plasmids, CEDTs, and MCs. The above described 16HBE14ge- cells, which expressed the PTC readthrough reporter piggyBac transgene (FIG. 15A) was used. More specifically, the cells were transfected with plasmids, CEDTs, or MCs encoding ACE-tRNAs. The cells were then sorted by FACS and mRNA was isolated from the non-green cells and green cells. Targeted RT-qPCR was used to quantify CFTR mRNA expression. […]
Further assays were carried out using 16HBEge- cells having W1282X-CFTR and the PTC readthrough reporter piggyBac transgene. […] The cells were NOT sorted by FACS for mRNA expression analysis, rather the entire population was analyzed.

[5] = test system: p.W1282X-CFTR mRNA; experiment: qPCR of steady state CFTR mRNA (NMD inhibition) in p.W1282X 16HBE14o- cells; format: cell-based, human; conditions: pW1282X cells; 48 hours after transfection; equal amounts; plain ACE-tRNA^Leu = plasmid
Description: as §1, §2, §3
It had been previously shown that leucine at CFTR p.W1282 (p.W1282L) gives ˜80% WT CFTR function, as measured with Ussing chamber recordings (Xue, X. et al., Human molecular genetics 26, 3116-3129, doi:10.1093/hmg/ddx196 (2017)).

[6] = test system: nuclei of nondividing cells; experiment: Nuclear localization of DNA after cytoplasmic microinjection; format: cell-based
Description: (D) Schematic of ACE-tRNA MC and CEDT with SV40 DTS.
Inventors have screened over 60 strong general and cell-specific promoters and found seven DTSs. Of these, two perform ubiquitously, while five bind specific transcription factors expressed in a subset of cells.
As an alternative approach to directly labeling the plasmid with Cy3-PNAs, one can also carry out fluorescent in situ hybridization (FISH) to visualize injected DNA. DTS candidate plasmids can be tested for nuclear import activity over a 30 min to 8 hr period in microinjected A549 lung epithelial cells (Dean, D. A. Exp. Cell Res. 230, 293-302 (1997), Dean, D. A., et al., Exp. Cell Res. 253, 713-722 (1999), and Vacik, J., et al., Gene Therapy 6, 1006-1014 (1999)). […] This approach can allow one to rank sequences relative to the SV40 DTS based on their speed of nuclear import. Negative controls of the pUC57 plasmid with no DTS and a positive control of the pUC57-SV40 DTS can also be injected to ensure that the cells remain viable after injection and have the ability to transport DNA into the nucleus.
Importantly, existing MC and CEDT technologies are […] at PTC suppression in both cell culture and in vivo (FIGS. 4-7 and 10). […] Therefore, to improve nuclear targeting, transcription and PTC suppression, ACE-tRNA^ArgUGA MCs and CEDTs with the 72 nucleotide SV40 DTS and generally active DTS are generated. […]

B1: ACE-tRNA^GlyUGA: anti-codon edited glycine tRNA recognizing the UGA PTC, SEQ ID NO: 5 (nucleic acid)
chain: GCGUUGGUGGUAUAGUGGUUAGCAUAGCUGCCUUCAAAGCAGUUGACCCGGGUUCGAUUCCCGGCCAACGCA
modifications: expressed or natural sequence
inhibition of NMD measured by qPCR [1]: significantly inhibited NMD | stop codon specificity [2]: specific for the UGA codon | PTC suppression compared with AMG G418 and gentamicin ([2]; 48 hr incubation in HEK293 cells): significantly outperformed | fidelity of encoding the cognate amino acid [3]: high fidelity

B2: ACE-tRNA^LeuUGA: anti-codon edited leucine tRNA recognizing the UGA PTC, SEQ ID NO: 4 (nucleic acid)
chain: ACCAGAAUGGCCGAGUGGUUAAGGCGUUGGACUUCAGAUCCAAUGGAUUCAUAUCCGCGUGGGUUCGAACCCCACUUCUGGUA
modifications: expressed or natural sequence
rescue of CFTR mRNA ([4]; delivered via plasmids, FACS-sorted GFP+ and GFP− cells, RT-qPCR): significantly rescued | suppression of W1282X compared with Tryptophan ACE-tRNA ([4]; plasmids, 48 hours): more effectively | inhibiting nonsense mediated decay compared with G418 ([4]; plasmids, G418 100 uM, 48 hours, W1282X-CFTR cells): significantly more effective | inhibition of NMD / rescue measured by qPCR [5]: significantly inhibited NMD

B3: SV40 sequence: DNA sequence from the SV40 genome containing the enhancer repeats, DNA nuclear targeting sequence (nucleic acid)
DNA: ATGCTTTGCATACTTCTGCCTGCTGGGGAGCCTGGGGACTTTCCACACCCTAACTGACACACATTCCACAGCTGGTTGGTACCTGCA
modifications: listed as DNA, chemistry not fully specified
localization after cytoplasmic injection [6]: nuclear localization | time to plasmid nuclear import [6]: ≤ 30 min

From patent publication US20230272378A1, “ENCODING AND EXPRESSION OF ACE-tRNAs” (University of Rochester, priority 2020, published 2023)
